# Assay results from publication doi:10.1101/787473, “C9orf72 arginine-rich dipeptide repeat proteins disrupt importin β-mediated nuclear import” (bioRxiv, 2019).
# No end group written: not given here.
# B1: AF488-labeled PR10 (peptide)
# peptide: PRPRPRPRPRPRPRPRPRPRKC(Alexa Fluor 488 C5‑maleimide)
# notes: C9orf72 poly-PR dipeptide repeat, ten repeats, with C-terminal K and C; also called AF488-PR10; AF488-labeled R-DPR; source: synthetic peptide (Genscript)
# B2: PR10, synthetic poly-proline-arginine 10-mer dipeptide repeat protein with C-terminal lysine and cysteine (peptide)
# peptide: PRPRPRPRPRPRPRPRPRPRKC
# notes: C9orf72 poly-PR dipeptide repeat, ten repeats, with C-terminal K (solubility) and C (labelling); Unlabelled peptide; The C-terminal KC was added by the authors; also called R-DPR; source: synthetic peptide (Genscript; 21st Century Biochemicals)
# B3: GR10, synthetic poly-glycine-arginine 10-mer dipeptide repeat protein with C-terminal lysine and cysteine (peptide)
# peptide: GRGRGRGRGRGRGRGRGRGRKC
# notes: C9orf72 poly-GR dipeptide repeat, ten repeats, with C-terminal K (solubility) and C (labelling); Unlabelled peptide; The C-terminal KC was added by the authors; also called poly-GR; R-DPR; source: synthetic peptide (Genscript; 21st Century Biochemicals)
# B4: AF488-labeled GR10 (peptide)
# peptide: GRGRGRGRGRGRGRGRGRGRKC(Alexa Fluor 488 C5‑maleimide)
# notes: C9orf72 poly-GR dipeptide repeat, ten repeats, with C-terminal K and C; also called AF488-GR10; AF488-labeled R-DPR; source: synthetic peptide (Genscript)
# How the values were obtained:
# Details in all cases: both partners purified
# [1] = target: T1, biotinylated WT importin β-Avitag (pKW1982; pK1099) (human, UniProt Q14974 1-876, biotin on the Avitag (co-expressed biotin ligase, 100 µM D-biotin)); test: bead halo assay; biotinylated bait (importin β-Avitag or BSA) on neutravidin beads; fluorescent prey (AF488-DPR 200 nM, Rango) in binding buffer (20 mM HEPES pH 7.4, 150 mM KOAc, 2 mM Mg(OAc)2, 1 mM DTT, 0.1% Tween-20) with EHBN; room temperature, at least 30 min; confocal rim vs. background ratio
# T1 construct: importin β (KPNB1), human, wild type; called full-length in the results of the bead halo assay; Immobilised on neutravidin beads by the biotinylated Avitag; also called biotinylated importin β; full-length importin β-coated beads; source: E. coli BL21DE3 co-transfected with pAC-biotin ligase, purified (Ni-NTA)
# T1 sequence (Q14974 whole entry): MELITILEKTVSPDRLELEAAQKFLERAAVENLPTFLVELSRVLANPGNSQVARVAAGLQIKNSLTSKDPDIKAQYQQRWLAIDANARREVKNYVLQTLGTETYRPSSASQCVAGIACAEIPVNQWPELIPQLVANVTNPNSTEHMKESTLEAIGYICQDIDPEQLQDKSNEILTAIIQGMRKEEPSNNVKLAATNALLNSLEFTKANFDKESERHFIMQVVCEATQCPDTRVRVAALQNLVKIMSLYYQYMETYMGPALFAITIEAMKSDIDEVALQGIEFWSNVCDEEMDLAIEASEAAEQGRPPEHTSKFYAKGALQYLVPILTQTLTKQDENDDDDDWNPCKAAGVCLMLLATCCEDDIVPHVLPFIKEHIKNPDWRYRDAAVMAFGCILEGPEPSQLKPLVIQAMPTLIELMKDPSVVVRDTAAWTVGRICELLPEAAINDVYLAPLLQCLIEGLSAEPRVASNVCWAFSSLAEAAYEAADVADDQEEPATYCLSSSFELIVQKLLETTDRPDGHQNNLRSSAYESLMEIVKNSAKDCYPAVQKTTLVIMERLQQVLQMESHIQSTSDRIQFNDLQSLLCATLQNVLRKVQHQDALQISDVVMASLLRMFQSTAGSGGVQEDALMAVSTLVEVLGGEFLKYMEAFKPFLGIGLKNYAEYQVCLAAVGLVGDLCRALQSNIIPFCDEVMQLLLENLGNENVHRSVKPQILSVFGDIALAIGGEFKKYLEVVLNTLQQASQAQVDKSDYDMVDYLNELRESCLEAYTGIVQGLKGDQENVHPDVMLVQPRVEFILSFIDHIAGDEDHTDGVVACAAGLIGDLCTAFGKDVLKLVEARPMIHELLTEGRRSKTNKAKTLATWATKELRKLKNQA
# [2] = target: T2, GST-tagged S. cerevisiae Nup100(1-610) (S. cerevisiae, UniProt Q02629 1-610); test: bead halo assay; GST-fusion yeast FG- and GLFG-domain baits on glutathione beads; AF488-labeled DPRs in binding buffer, without added importin β; rim vs. background ratio against the Nup116 F>A mutant
# T2 construct: Nup100, S. cerevisiae, residues 1-610 (GLFG domain fragment); Bait on glutathione beads; also called FG-domains of Nup100; Nup100 fragments; source: E. coli T7 Shuffle, purified (glutathione-sepharose)
# T2 sequence (Q02629 1-610): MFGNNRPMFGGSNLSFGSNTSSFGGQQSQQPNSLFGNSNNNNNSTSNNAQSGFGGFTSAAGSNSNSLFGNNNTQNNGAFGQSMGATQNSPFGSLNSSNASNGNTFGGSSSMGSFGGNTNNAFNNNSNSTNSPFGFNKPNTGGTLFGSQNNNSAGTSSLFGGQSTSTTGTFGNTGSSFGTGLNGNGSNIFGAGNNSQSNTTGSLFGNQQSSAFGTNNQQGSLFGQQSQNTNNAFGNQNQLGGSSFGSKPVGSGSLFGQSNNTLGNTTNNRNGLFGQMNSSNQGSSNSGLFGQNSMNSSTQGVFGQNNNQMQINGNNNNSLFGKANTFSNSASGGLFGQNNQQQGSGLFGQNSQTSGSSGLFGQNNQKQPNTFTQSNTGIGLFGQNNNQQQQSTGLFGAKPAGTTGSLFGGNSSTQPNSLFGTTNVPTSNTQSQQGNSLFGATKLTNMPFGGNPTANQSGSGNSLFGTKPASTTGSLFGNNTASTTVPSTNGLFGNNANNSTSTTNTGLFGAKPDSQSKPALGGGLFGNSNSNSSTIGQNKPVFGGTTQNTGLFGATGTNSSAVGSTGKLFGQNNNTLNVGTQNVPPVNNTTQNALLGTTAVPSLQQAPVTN
# [3] = target: T3, GST-tagged S. cerevisiae Nup100(1-307) (S. cerevisiae, UniProt Q02629 1-307); test: as above
# T3 construct: Nup100, S. cerevisiae, residues 1-307 (GLFG domain fragment); Bait on glutathione beads; also called FG-domains of Nup100; Nup100 fragments; source: E. coli T7 Shuffle, purified (glutathione-sepharose)
# T3 sequence (Q02629 1-307): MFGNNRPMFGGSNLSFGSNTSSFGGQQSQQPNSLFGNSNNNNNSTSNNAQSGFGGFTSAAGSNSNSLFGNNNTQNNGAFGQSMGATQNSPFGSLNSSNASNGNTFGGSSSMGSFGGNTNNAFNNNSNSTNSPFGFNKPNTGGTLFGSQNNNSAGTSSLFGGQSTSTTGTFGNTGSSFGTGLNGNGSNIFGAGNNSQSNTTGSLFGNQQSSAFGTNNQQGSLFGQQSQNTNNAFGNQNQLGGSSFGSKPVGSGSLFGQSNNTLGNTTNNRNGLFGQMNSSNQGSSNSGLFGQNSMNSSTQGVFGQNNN
# [4] = target: T4, full length human importin β (KPNB1), expressed from pET30a-WT Importin β (pKW485) (human, UniProt Q14974 1-876); test: FRET or BRET; displacement of importin β from the Rango FRET sensor in solution: 20 nM Rango + 50 nM importin β in TBS pH 7.4, 0.005% Tween-20, increasing concentrations of DPR 10-mers or ZZ-RanQ69L-GTP; acceptor/donor emission ratio, fit to one-site binding model
# T4 construct: importin β (KPNB1), human, wild type, full length; also called unlabeled importin β
# T4 sequence (Q14974 whole entry): as the sequence (Q14974 whole entry) above
binder,measurement,setting,value
B1,halo intensity (rim vs. background) against control beads,[1],~2 fold
same,binding result,[2],binds
same,binding result,[3],binds
B2,binding result,[4],binds
B3,binding result,[4],binds
B4,halo intensity (rim vs. background) against control beads,[1],~2 fold
same,binding result,[2],binds
same,binding result,[3],binds
